B1: hNEU1-TMS2 (domain or fragment)
chain: not shown
modifications: 15N-labeled
notes: human NEU1, residues R305-R341, holding the transmembrane segment TM2; Embedded in DPC micelles for NMR; also called hNEU1/TMS2 fragment; hNEU1 TM2 segment; source: bacterial expression and purification as described in Maurice et al. (2016)

Key:
[1] = molecular target: the molecule itself; assay: NMR titration; homodimerisation: 0.4 mM 15N-labeled hNEU1-TMS2 in DPC micelles, D/P 50 titrated with DPC to 110 (further samples to D/P 200); pH 6.5, 20 mM sodium phosphate, 313 K, 800 MHz, 1H/15N-TROSY
hNEU1-TMS2 = molecular target: B1; assay: NMR titration; heterodimerisation: 0.3 mM 15N-labeled hNEU1-TMS2 in DPC micelles (D/P 120) titrated with unlabeled recombinant peptide in micelles up to N/I of 1 (D/P near 100); pH 6.5, 20 mM sodium phosphate, 313 K, 1H/15N-TROSY; conditions: both partners purified

| binding result (hNEU1-TMS2) | Binder | stoichiometry N [1] |
| --- | --- | --- |
|  | B1 | 2 |
| binds | GSMWHHHHHHGGELVDPVVVAIAVVTSSIIAFFSN (holds the His6; not NEU1; human NEU1, TM2 segment with four point mutations; The gene construct had GB1 as leading fusion protein followed by a thrombin cleavage site; the printed peptide begins with GS, so GB1 was probably cleaved off (surmised); Unlabeled; embedded in DPC micelles; also called recombinant version of the four-point mutated peptide IntPep; source: continuous exchange cell-free …) [mutIntPepR] |  |
